Measured values taken from paper PMC10397247.
Blank lines part the entries; values can stand above or below the binder they belong to.

Columns and labels:
Experiment in all cases: two-hybrid library CCNG1;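 also: natural log of median RNA to DNA barcode read ratio; higher means stronger binding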
[1] = target: T1, 4H2444-bA
T1 chain: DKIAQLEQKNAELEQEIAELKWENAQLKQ

[2] = target: T2, 4H2518-bA
T2 chain: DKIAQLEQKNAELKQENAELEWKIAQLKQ

[3] = target: T3, 4H2585-bA
T3 chain: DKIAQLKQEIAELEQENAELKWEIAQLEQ

[4] = target: T4, 4H264-bA
T4 chain: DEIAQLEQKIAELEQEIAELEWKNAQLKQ

[5] = target: T5, 4H2760-bA
T5 chain: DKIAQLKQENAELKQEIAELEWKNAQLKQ

[6] = target: T6, 4H2859-bA
T6 chain: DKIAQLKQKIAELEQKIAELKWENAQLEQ

[7] = target: T7, 4H2931-bA
T7 chain: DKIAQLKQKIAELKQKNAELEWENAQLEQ

[8] = target: T8, 4H3041-bA
T8 chain: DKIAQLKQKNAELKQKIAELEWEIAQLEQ

[9] = target: T9, 4H3297-bA
T9 chain: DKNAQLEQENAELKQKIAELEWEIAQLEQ

[10] = target: T10, 4H3364-bA
T10 chain: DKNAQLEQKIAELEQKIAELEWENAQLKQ

[11] = target: T11, 4H3381-bA
T11 chain: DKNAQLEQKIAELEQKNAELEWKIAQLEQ

[12] = target: T12, 4H349-bA
T12 chain: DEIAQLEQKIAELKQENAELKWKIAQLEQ

[13] = target: T13, 4H492-bA
T13 chain: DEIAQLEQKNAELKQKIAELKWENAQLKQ

[14] = target: T14, 4H56-bA
T14 chain: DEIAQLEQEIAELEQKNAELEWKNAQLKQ

[15] = target: T15, 4H730-bA
T15 chain: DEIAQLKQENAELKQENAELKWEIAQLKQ

[16] = target: T16, 4H796-bA
T16 chain: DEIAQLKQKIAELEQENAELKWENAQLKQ

[17] = target: T17, 4H932-bA
T17 chain: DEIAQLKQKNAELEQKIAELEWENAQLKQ

[18] = target: T18, 4H949-bA
T18 chain: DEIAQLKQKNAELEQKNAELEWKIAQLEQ

[19] = target: T19, 4H2503-bN
T19 chain: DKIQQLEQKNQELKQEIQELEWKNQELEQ

[20] = target: T20, 4H2588-bN
T20 chain: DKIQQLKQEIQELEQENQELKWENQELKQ

[21] = target: T21, 4H2692-bN
T21 chain: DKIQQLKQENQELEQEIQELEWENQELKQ

[22] = target: T22, 4H2717-bN
T22 chain: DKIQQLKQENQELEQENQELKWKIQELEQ

[23] = target: T23, 4H2839-bN
T23 chain: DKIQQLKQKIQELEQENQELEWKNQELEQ

[24] = target: T24, 4H2915-bN
T24 chain: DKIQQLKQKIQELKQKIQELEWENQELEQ

[25] = target: T25, 4H3057-bN
T25 chain: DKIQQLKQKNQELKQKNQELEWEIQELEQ

[26] = target: T26, 4H319-bN
T26 chain: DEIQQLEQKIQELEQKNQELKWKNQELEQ

[27] = target: T27, 4H3277-bN
T27 chain: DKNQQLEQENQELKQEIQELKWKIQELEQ

[28] = target: T28, 4H348-bN
T28 chain: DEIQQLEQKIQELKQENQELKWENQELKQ

[29] = target: T29, 4H40-bN
T29 chain: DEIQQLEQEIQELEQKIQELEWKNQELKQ

[30] = target: T30, 4H477-bN
T30 chain: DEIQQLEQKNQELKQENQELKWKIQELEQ

[31] = target: T31, 4H492-bN
T31 chain: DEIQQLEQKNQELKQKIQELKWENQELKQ

[32] = target: T32, 4H741-bN
T32 chain: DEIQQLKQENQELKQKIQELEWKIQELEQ

[33] = target: T33, O4-bS
T33 chain: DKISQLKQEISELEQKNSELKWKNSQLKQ

[34] = target: T34, O8-bN
T34 chain: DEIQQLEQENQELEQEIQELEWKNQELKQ

[35] = target: T35, P4A
T35 chain: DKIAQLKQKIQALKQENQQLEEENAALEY

[36] = target: T36, 4H48-bN
T36 chain: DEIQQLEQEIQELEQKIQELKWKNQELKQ

[37] = target: T37, 4H491-bN
T37 chain: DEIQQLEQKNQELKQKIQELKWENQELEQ

[38] = target: T38, 4H2586-bA
T38 chain: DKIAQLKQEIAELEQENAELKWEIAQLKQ

[39] = target: T39, 4H2627-bA
T39 chain: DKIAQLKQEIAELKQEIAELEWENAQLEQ

[40] = target: T40, 4H2673-bA
T40 chain: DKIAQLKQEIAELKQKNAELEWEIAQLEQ

[41] = target: T41, 4H2702-bA
T41 chain: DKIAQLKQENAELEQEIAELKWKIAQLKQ

[42] = target: T42, 4H3010-bA
T42 chain: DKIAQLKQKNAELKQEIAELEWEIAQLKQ

[43] = target: T43, 4H3112-bA
T43 chain: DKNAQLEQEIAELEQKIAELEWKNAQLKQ

[44] = target: T44, 4H3427-bA
T44 chain: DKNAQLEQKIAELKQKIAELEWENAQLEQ

[45] = target: T45, 4H346-bA
T45 chain: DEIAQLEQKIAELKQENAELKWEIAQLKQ

[46] = target: T46, 4H3926-bA
T46 chain: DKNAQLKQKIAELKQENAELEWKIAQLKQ

[47] = target: T47, 4H4073-bA
T47 chain: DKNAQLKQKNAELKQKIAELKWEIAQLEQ

[48] = target: T48, 4H457-bA
T48 chain: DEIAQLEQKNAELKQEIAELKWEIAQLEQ

[49] = target: T49, 4H575-bA
T49 chain: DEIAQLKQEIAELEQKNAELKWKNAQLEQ

[50] = target: T50, 4H683-bA
T50 chain: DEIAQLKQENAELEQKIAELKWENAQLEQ

[51] = target: T51, 4H754-bA
T51 chain: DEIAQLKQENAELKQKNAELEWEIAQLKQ

[52] = target: T52, 4H780-bA
T52 chain: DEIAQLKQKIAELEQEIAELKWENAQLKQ

[53] = target: T53, 4H797-bA
T53 chain: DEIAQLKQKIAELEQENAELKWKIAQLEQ

[54] = target: T54, 4H855-bA
T54 chain: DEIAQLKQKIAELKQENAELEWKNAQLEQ

[55] = target: T55, 4H918-bA
T55 chain: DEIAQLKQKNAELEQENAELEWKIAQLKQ

[56] = target: T56, 4H953-bA
T56 chain: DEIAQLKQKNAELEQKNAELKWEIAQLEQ

[57] = target: T57, 4H968-bA
T57 chain: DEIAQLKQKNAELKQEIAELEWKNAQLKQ

[58] = target: T58, O2-bN
T58 chain: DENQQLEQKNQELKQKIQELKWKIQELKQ

interaction score [1]: 1.3
interaction score [2]: -0.678
interaction score [3]: 0.675
interaction score [4]: 0.179
interaction score [5]: 1.15
interaction score [6]: -0.0526
interaction score [7]: 0.114
interaction score [8]: 0.922
interaction score [9]: 0.252
interaction score [10]: -0.57
interaction score [11]: -0.537
interaction score [12]: -0.457
interaction score [13]: 1.66
interaction score [14]: -1.91
interaction score [15]: -0.297
interaction score [16]: -0.412
interaction score [17]: -1.36
interaction score [18]: -0.993
Binder: DKIAQLEQKNAELEQEIAELKWENAQLKQ [4H2444-bA]

interaction score [36]: 1.04
interaction score [37]: -0.799
Binder: DEIQQLEQEIQELEQKIQELKWKNQELKQ [4H48-bN]

Continued, binder first:

Binder: DKIQQLEQKNQELKQEIQELEWKNQELEQ [4H2503-bN]
interaction score [19]: -0.645
interaction score [20]: 0.453
interaction score [21]: -2.06
interaction score [22]: -1.42
interaction score [23]: -0.436
interaction score [24]: -0.299
interaction score [25]: -0.657
interaction score [26]: -0.708
interaction score [27]: 0.0524
interaction score [28]: 0.419
interaction score [29]: -0.263
interaction score [30]: -0.639
interaction score [31]: 0.186
interaction score [32]: -0.327
interaction score [33]: -1.2

Binder: DKIAQLEQKNAELKQENAELEWKIAQLKQ [4H2518-bA]
interaction score [2]: 0.343
interaction score [3]: -0.589
interaction score [4]: -1
interaction score [5]: -0.635
interaction score [6]: -0.00645
interaction score [7]: -0.288
interaction score [8]: 0.486
interaction score [9]: -0.628
interaction score [10]: -0.361
interaction score [11]: -0.773
interaction score [12]: -0.372
interaction score [14]: -1.52
interaction score [15]: -0.626
interaction score [16]: -1.33
interaction score [17]: -1.08
interaction score [18]: -0.976
interaction score [34]: -2.05
interaction score [35]: -1.32

Binder: DKIAQLKQEIAELEQENAELKWEIAQLKQ [4H2586-bA]
interaction score [38]: 1.48
interaction score [39]: 0.292
interaction score [40]: 0.53
interaction score [41]: 0.531
interaction score [42]: 1.28
interaction score [43]: -1
interaction score [44]: -0.911
interaction score [45]: 0.976
interaction score [46]: 1.9
interaction score [47]: 0.255
interaction score [48]: 0.765
interaction score [49]: -0.515
interaction score [50]: 0.537
interaction score [51]: -1.06
interaction score [52]: -1.17
interaction score [53]: 0.763
interaction score [54]: 1.54
interaction score [55]: -0.499
interaction score [56]: 1.17
interaction score [57]: -1.91
interaction score [58]: -0.327
